Source: US20250115680A1 (PROFOUNDBIO US, published 2025)

T1: mouse PTK-7 recombinant protein (mouse, UniProt Q8BKG3 23-696, limits assumed)
T1 construct: also called mouse PTK7 protein
T1 sequence (looked up): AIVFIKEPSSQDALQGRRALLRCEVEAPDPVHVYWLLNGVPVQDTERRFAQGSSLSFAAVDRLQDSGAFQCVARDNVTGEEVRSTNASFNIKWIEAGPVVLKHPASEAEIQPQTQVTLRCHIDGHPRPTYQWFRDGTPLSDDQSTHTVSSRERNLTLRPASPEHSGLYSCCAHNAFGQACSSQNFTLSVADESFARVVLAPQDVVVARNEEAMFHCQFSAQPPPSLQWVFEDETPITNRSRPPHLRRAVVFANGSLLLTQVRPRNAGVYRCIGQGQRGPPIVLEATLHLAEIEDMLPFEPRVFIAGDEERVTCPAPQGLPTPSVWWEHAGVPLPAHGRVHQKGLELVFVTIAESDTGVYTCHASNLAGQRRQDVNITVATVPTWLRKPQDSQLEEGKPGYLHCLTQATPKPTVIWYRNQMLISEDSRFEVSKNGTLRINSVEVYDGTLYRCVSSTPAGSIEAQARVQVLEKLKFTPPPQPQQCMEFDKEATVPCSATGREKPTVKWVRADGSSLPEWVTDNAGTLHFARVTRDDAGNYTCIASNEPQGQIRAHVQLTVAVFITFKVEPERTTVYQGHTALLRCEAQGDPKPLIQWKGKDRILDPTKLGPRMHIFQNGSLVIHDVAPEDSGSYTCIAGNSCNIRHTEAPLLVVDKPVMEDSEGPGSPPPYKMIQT

T2: cynomolgus PTK7 extra-cellular domain (ECD) linked to His tag (cynomolgus monkey, UniProt A0A2K5VNI5 39-712)
T2 construct: extracellular domain; also called cPTK7-his; cynomolgus monkey PTK7-his protein; not shown: His tag
T2 sequence: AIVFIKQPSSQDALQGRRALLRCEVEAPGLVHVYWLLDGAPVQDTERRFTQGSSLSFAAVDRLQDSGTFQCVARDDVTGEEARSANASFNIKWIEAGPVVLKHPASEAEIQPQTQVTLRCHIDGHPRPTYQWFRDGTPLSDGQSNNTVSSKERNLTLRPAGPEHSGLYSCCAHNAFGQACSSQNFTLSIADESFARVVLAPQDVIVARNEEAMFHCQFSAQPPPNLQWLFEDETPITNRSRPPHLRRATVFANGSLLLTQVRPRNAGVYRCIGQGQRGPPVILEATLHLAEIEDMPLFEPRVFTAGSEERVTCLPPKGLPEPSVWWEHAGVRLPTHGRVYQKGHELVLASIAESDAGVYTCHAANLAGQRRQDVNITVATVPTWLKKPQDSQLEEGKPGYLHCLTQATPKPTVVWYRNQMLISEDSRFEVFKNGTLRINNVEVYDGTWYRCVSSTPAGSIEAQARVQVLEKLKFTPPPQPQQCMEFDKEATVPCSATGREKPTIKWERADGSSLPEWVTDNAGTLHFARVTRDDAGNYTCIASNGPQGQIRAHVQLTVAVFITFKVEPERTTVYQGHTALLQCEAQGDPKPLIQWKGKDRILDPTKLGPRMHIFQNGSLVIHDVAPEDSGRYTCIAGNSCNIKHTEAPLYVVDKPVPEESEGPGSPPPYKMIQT

B1: humanized antibody 2C5 (antibody, V domains shown)
VH: QVQLVQSGAEVKKPGASVKVSCKASGYTFTDYYINWVRQAPGQGLEWMGDINPYSGGPVYNQKFMARVTMTVDKSINTAYMELSRLRSDDTAVYYCARGDYYGSNYNYWGQGTLVTVSS
VL: EIVLTQSPATLSVSPGERATLSCRASQNIGTSIHWYQQKPGQAPRLLIKFASESISGIPARFSGSGSGTEFTLTISSLQSEDIAVYYCQQSNNWPYTFGQGTKLEIK
notes: Only variable regions are tied to 2C5; It was detected with anti-human Fc, so it has a human Fc
B2: humanized antibody 13C4 (antibody, V domains shown)
VH: QVQLVESGGGLVKPGGSLRLSCAASGFAFSTYDMFWIRQAPGKGLEWVSTISSGGGYTYYPGSVKGRFTISRDNAKNSLYLQMNSLRAEDTAVYYCVRPLLRDSYFYFDVWGQGTMVTVSS
VL: EIVMTQSPATLSVSPGERATLSCRASSSVSSSYLHWYQQKPGQAPRLLIFRTSNLASGIPARFSGSGSGTEYTLTISSLQSEDAAVYYCQQYSGYPLTFGQGTKLEIK
notes: Only variable regions are tied to 13C4; It was detected with anti-human Fc

Tests used:
[1] = molecular target: T1, mouse PTK-7 recombinant protein; assay: ELISA, plate coated with 2 ug/mL mouse PTK-7 recombinant protein, HRP anti-human Fc detection, OD450
Method: (§1) Binding specificity property was tested by ELISA according to a standard protocol. Specifically, 96-well micro-plates were coated with 2 μg/mL human, cynomolgus, mouse, and rat PTK-7 recombinant protein in PBS 100 μL per well, incubated overnight at 4° C. Plates were washed twice by TBS+0.5% Tween20. 200 μL of blocking buffer (2% BSA in PBS) was added to each well and incubated at 37° C. for 2 hours. Plates were washed using the buffer mentioned above. Serially diluted antibodies were added to the ELISA plate with 100 μL per well and incubated for 1 hour at room temperature. Then plates were washed for 3 times. After washing, HRP conjugated anti-human Fc antibody solution (abcam, ab98624, diluted with blocking buffer) was added to the plate with 100 μl per well. The plates were incubated at room temperature for 1 hour and then washed for 3 times. Then TMB solution was added to plates with 100 μl per well, placed at room temperature for 5-15 mins, then the stop solution (2M H₂SO₄) was added with 50 μl per well. Finally, the result was measured by absorbance at A₄₅₀ and A₆₃₀.

[2] = molecular target: T1, mouse PTK-7 recombinant protein; assay: ELISA, plate-coated mouse PTK7 protein, anti-human Fc-HRP detection
Method: as §1

[3] = molecular target: T2, cynomolgus PTK7 extra-cellular domain …; assay: BLI (Octet RED), antibody on anti-human IgG Fc tips, PTK7 ECD-His 100 to 1.56 nM in solution, 1:1 global fit
Method: Recombinant proteins consisting of the PTK7 extra-cellular domain (ECD) linked to His tag were purchased from ACRO biosystems. […] Binding assays using varying concentrations from 100 nM down to 1.56 nM of recombinant proteins (human, cynomolgus) in solution were performed using Octet RED (ForteBio). Association time was set at 180 seconds and dissociation time was set at 300 seconds. Binding affinity was calculated using ForteBio Data Acquisition 6.3 software (ForteBio). Affinity was derived by fitting the kinetic data to a 1:1 Langmuir binding model utilizing global fitting algorithms.

[4] = molecular target: T3, rat PTK-7 recombinant protein (rat, UniProt A0A8I6ALM9 40-713); assay: ELISA, plate-coated rat PTK7 protein, anti-human Fc-HRP detection
T3 construct: also called rat PTK7 protein
Method: as §1

[5] = molecular target: T3, rat PTK-7 recombinant protein; assay: ELISA, plate coated with 2 ug/mL rat PTK-7 recombinant protein, HRP anti-human Fc detection, OD450
Method: as §1

Binder | EC50 [1] [nM] | EC50 [2] [nM] | Kd [3] [nM] | koff [3] [s⁻¹] | kon [3] [M⁻¹ s⁻¹] | EC50 [4] [nM] | EC50 [5] [nM]
B1 | 1.57 | 5.24 | 0.0904 | 2.02e-05 | 224000 | 1.57 | 5.24
B2 | – | – | < 0.001 | < 1e-07 | 54100 | – | –
